According to paper PMC3303844, “C-Terminal Extension of the Yeast Mitochondrial DNA Polymerase Determines the Balance between Synthesis and Degradation”:

How the values were obtained:
Details in all cases: protein: recombinant; tags: N-terminal 6xHis; label: 32P at 5' end of D25 primer; 25 bp duplex, 5' overhang 20 nt on D45 (recessed primer 3' end)
[1] = molecular target: T1, FL-Mip1 (mitochondrial DNA polymerase gamma) (Saccharomyces cerevisiae, UniProt P15801 30-1254); assay: EMSA; no Mg2+ or dNTP in binding mix; EMSA: 1 nM substrate, 0.2-12.5 nM polymerase, 20 mM Tris-HCl pH 8.0, 40 mM KCl, 10% glycerol, 0.1 mg/ml BSA, 2 mM DTT, 2 min at 0°C; native 8% Tris-glycine gel
T1 sequence: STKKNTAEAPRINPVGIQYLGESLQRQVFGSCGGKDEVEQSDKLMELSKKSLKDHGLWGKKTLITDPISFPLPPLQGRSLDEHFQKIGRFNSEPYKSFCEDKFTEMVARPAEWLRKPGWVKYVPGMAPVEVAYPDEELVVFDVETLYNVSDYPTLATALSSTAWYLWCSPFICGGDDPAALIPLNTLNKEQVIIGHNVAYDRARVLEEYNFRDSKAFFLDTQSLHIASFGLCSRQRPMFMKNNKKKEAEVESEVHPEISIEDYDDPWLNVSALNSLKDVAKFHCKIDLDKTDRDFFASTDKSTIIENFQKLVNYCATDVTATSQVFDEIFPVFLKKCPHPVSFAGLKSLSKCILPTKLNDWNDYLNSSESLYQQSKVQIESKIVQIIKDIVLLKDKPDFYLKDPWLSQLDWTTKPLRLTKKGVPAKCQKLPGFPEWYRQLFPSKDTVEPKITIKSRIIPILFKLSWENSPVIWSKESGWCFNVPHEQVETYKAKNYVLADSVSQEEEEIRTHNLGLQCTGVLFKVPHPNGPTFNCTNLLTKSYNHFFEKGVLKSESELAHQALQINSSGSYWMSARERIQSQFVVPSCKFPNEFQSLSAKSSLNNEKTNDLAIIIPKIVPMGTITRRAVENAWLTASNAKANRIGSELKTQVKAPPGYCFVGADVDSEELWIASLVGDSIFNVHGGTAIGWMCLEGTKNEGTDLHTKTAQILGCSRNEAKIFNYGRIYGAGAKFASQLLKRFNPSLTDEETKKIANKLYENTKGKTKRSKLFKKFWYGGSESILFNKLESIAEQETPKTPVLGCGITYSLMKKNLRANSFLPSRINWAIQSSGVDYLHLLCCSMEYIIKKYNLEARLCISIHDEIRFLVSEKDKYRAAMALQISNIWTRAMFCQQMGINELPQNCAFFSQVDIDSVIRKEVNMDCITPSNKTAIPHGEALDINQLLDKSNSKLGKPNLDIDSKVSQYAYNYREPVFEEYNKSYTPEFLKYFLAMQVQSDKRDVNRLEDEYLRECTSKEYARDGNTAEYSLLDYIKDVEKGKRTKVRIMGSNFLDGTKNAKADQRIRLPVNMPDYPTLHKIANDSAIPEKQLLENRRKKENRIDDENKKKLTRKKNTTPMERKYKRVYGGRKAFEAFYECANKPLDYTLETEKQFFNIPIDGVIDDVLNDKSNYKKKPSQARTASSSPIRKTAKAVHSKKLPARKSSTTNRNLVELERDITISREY

Mip1Δ216 = molecular target: T2, Mip1Δ216 (Saccharomyces cerevisiae, UniProt P15801 30-1038, del1039-1254); assay: as above
T2 sequence: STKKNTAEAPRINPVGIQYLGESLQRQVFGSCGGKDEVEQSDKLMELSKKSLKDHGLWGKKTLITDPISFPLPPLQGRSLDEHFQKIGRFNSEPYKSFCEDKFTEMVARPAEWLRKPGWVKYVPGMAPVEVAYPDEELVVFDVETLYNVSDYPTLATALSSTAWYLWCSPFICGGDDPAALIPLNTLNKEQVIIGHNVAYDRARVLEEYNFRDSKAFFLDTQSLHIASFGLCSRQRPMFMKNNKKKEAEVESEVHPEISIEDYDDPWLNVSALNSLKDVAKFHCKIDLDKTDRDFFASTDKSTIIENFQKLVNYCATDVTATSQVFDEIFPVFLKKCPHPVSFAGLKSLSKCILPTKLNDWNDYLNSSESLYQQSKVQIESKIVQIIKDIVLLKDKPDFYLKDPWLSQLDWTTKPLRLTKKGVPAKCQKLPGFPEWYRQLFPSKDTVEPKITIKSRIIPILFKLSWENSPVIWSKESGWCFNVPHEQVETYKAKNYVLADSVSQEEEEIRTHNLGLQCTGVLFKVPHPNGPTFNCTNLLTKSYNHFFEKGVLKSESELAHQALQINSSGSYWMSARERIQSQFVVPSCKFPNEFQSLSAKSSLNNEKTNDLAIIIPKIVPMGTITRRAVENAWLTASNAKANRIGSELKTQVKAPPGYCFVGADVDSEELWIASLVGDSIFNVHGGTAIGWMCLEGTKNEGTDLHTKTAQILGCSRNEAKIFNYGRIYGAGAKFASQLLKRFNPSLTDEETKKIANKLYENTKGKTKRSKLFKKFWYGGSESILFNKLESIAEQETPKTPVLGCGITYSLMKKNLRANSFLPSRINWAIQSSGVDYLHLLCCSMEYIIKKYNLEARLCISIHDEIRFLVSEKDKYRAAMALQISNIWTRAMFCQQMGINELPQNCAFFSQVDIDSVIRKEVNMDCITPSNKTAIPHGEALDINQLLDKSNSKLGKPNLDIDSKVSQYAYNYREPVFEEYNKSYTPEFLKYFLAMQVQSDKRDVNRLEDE

Mip1Δ175 = molecular target: T3, Mip1Δ175 (Saccharomyces cerevisiae, UniProt P15801 30-1079, del1080-1254); assay: as above
T3 sequence: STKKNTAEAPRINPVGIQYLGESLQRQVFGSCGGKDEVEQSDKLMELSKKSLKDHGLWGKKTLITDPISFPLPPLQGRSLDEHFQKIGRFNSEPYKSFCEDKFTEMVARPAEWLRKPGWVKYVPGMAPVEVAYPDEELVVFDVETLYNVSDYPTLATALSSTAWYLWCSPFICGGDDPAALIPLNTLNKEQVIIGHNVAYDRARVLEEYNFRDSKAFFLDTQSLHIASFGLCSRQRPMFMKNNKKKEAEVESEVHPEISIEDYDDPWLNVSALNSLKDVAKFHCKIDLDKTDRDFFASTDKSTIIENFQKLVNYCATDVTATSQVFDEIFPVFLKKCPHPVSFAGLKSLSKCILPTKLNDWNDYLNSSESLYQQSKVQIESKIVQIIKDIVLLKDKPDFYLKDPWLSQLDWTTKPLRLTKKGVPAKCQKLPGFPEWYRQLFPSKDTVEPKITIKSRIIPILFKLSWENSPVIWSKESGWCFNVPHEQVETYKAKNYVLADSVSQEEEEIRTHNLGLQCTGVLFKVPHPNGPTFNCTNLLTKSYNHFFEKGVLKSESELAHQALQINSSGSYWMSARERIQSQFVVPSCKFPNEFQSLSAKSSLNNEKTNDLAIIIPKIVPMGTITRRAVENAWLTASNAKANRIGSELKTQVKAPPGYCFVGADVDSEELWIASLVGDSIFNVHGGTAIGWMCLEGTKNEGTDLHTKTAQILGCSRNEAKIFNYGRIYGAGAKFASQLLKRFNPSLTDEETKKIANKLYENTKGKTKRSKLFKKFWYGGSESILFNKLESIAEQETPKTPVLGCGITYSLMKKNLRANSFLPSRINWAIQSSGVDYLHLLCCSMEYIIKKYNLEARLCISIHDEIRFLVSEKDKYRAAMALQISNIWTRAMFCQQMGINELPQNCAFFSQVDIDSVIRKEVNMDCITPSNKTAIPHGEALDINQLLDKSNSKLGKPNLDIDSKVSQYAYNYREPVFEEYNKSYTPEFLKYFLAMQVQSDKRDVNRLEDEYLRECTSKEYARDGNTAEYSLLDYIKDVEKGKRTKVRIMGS

Mip1Δ279 = molecular target: T4, Mip1Δ279 (Saccharomyces cerevisiae, UniProt P15801 30-975, del976-1254); assay: EMSA; faint shifted band, complex possibly retained in well (aggregation); not quantified; EMSA: 1 nM substrate, 0.2-12.5 nM polymerase, 20 mM Tris-HCl pH 8.0, 40 mM KCl, 10% glycerol, 0.1 mg/ml BSA, 2 mM DTT, 2 min at 0°C; native 8% Tris-glycine gel
T4 sequence: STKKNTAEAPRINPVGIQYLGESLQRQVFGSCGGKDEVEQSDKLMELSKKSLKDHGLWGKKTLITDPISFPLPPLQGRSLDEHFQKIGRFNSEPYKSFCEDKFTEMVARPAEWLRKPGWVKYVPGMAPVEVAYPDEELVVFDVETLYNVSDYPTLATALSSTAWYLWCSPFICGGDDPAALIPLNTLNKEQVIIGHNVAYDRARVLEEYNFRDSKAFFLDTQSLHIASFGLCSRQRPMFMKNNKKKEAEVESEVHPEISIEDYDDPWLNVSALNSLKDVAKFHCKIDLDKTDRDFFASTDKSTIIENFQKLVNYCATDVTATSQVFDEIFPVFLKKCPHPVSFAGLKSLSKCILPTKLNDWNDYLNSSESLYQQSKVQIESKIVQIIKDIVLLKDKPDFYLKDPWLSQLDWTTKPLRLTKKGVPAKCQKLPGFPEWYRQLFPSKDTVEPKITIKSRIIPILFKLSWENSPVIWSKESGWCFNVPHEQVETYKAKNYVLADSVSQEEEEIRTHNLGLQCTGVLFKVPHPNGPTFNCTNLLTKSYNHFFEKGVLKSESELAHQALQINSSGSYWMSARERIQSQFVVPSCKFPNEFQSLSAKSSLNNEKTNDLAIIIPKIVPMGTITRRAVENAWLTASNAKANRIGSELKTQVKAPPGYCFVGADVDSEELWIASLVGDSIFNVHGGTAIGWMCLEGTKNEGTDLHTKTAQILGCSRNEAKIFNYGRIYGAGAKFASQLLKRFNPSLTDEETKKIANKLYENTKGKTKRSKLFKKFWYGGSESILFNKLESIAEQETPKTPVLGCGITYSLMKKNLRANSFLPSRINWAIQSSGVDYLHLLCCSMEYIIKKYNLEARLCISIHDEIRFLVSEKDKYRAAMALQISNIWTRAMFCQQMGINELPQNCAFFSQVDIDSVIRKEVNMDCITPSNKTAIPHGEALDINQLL

B1: 45/25 primer-template (D45/D25) (dsDNA)
DNA 1: GGACGGCATTGGATCGAGGTTGAGTTGGTTGGACGGCTGCGAGGC
DNA 2: GCCTCGCAGCCGTCCAACCAACTCA
Kd [1]: 4.3 ± 0.68 nM
Kd (Mip1Δ216): 0.95 ± 0.18 nM
Kd (Mip1Δ175): 2.2 ± 0.75 nM
binding result (Mip1Δ279): binds
